Laboratory results taken from US20130165389A1 (AMUNIX OPERATING, published 2013).

T1: human IL6R (human, UniProt P08887 20-358, limits assumed)
T1 construct: also called IL-6 receptor
T1 sequence (looked up): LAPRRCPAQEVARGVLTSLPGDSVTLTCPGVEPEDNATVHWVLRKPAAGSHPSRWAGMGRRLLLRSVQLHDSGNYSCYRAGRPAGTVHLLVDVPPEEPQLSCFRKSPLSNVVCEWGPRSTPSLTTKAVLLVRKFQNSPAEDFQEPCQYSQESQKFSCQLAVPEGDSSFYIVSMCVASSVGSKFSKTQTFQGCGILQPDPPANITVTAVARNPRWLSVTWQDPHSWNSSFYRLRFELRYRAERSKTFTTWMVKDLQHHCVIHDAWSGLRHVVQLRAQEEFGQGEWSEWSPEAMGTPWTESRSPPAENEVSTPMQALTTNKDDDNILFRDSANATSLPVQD


How the values were obtained:
[1] = molecular target: T1, human IL6R; assay: ELISA, coated human IL6R, biotinylated anti-XTEN antibody and streptavidin-HRP
[2] = molecular target: T2, human CD40-Fc fusion (human, UniProt P25942 21-193); assay: ELISA, dilution series of cleared lysate on coated human CD40-Fc; Kd from EC50 and an estimated 10 µM in the lysate
T2 construct: Coated at 100 ng/well; not shown: Fc part of the fusion
T2 sequence (P25942 21-193 limits assumed): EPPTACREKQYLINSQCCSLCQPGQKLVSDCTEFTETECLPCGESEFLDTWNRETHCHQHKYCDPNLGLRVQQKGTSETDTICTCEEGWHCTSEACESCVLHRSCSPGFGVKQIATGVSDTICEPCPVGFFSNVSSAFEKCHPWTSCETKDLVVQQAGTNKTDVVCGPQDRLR

EC50 [1] [nM] | Kd [2] [nM] | Binder
5 | – | aIL6R scFv-AE864, AC342 (scFv, Single-chain scFv-XTEN fusion expressed in E. coli; also called aIL6R-XTEN) scFv: MADIQMTQSPSSLSASVGDRVTITCRASQDISSYLNWYQQKPGKAPKLLIYYTSRLHSGVPSRFSGSGSGTDFTFTISSLQPEDIATYYCQQGNTLPYTFGQGTKVEIKTGSGEGSEGEGGGEGSEGEGSGEGGEGEGSGSQVQLQESGPGLVRPSQTLSLTCTVSGYSITSDHAWSWVRQPPGRGLEWIGYISYSGITTYNPSLKSRVTMLRDTSKNQFSLRLSSVTAADTAVYYCARSLARTTAMDYWGQGSLVTVSSGSPGSPAGSPTSTEEGTSESATPESGPGTSTEPSEGSAPGSPAGSPTSTEEGTSTEPSEGSAPGTSTEPSEGSAPGTSESATPESGPGSEPATSGSETPGSEPATSGSETPGSPAGSPTSTEEGTSESATPESGPGTSTEPSEGSAPGTSTEPSEGSAPGSPAGSPTSTEEGTSTEPSEGSAPGTSTEPSEGSAPGTSESATPESGPGTSTEPSEGSAPGTSESATPESGPGSEPATSGSETPGTSTEPSEGSAPGTSTEPSEGSAPGTSESATPESGPGTSESATPESGPGSPAGSPTSTEEGTSESATPESGPGSEPATSGSETPGTSESATPESGPGTSTEPSEGSAPGTSTEPSEGSAPGTSTEPSEGSAPGTSTEPSEGSAPGTSTEPSEGSAPGTSTEPSEGSAPGSPAGSPTSTEEGTSTEPSEGSAPGTSESATPESGPGSEPATSGSETPGTSESATPESGPGSEPATSGSETPGTSESATPESGPGTSTEPSEGSAPGTSESATPESGPGSPAGSPTSTEEGSPAGSPTSTEEGSPAGSPTSTEEGTSESATPESGPGTSTEPSEGSAPGTSESATPESGPGSEPATSGSETPGTSESATPESGPGSEPATSGSETPGTSESATPESGPGTSTEPSEGSAPGSPAGSPTSTEEGTSESATPESGPGSEPATSGSETPGTSESATPESGPGSPAGSPTSTEEGSPAGSPTSTEEGTSTEPSEGSAPGTSESATPESGPGTSESATPESGPGTSESATPESGPGSEPATSGSETPGSEPATSGSETPGSPAGSPTSTEEGTSTEPSEGSAPGTSTEPSEGSAPGSEPATSGSETPGTSESATPESGPGTSTEPSEGSAPG
– | ~50 | anti-CD40-AE864, AC384 (scFv, Tested as cleared E. coli lysate, not purified; also called aCD40-XTEN; pBC0009) scFv: MAEIVLTQSPATLSLSPGERATLSCRASQSISDYLHWYQQKPGQAPRLLIYYASHSISGIPARFSGSGSGTDFTLTISSLEPEDFAVYYCQHGHSYPWTFGGGTKVEIKTGSGEGSEGEGGGEGSEGEGSGEGGEGEGSGTQVQLVQSGSELKKPGASVKVSCKASGYAFTTTGMQWVRQAPGQGLEWMGWINTHSGVPKYVEDFKGRFVFSLDTSVSTAYLQISSLKAEDTAVYYCARSGNGNYDLAYFKYWGQGTLVTVSSGGSPAGSPTSTEEGTSESATPESGPGTSTEPSEGSAPGSPAGSPTSTEEGTSTEPSEGSAPGTSTEPSEGSAPGTSESATPESGPGSEPATSGSETPGSEPATSGSETPGSPAGSPTSTEEGTSESATPESGPGTSTEPSEGSAPGTSTEPSEGSAPGSPAGSPTSTEEGTSTEPSEGSAPGTSTEPSEGSAPGTSESATPESGPGTSTEPSEGSAPGTSESATPESGPGSEPATSGSETPGTSTEPSEGSAPGTSTEPSEGSAPGTSESATPESGPGTSESATPESGPGSPAGSPTSTEEGTSESATPESGPGSEPATSGSETPGTSESATPESGPGTSTEPSEGSAPGTSTEPSEGSAPGTSTEPSEGSAPGTSTEPSEGSAPGTSTEPSEGSAPGTSTEPSEGSAPGSPAGSPTSTEEGTSTEPSEGSAPGTSESATPESGPGSEPATSGSETPGTSESATPESGPGSEPATSGSETPGTSESATPESGPGTSTEPSEGSAPGTSESATPESGPGSPAGSPTSTEEGSPAGSPTSTEEGSPAGSPTSTEEGTSESATPESGPGTSTEPSEGSAPGTSESATPESGPGSEPATSGSETPGTSESATPESGPGSEPATSGSETPGTSESATPESGPGTSTEPSEGSAPGSPAGSPTSTEEGTSESATPESGPGSEPATSGSETPGTSESATPESGPGSPAGSPTSTEEGSPAGSPTSTEEGTSTEPSEGSAPGTSESATPESGPGTSESATPESGPGTSESATPESGPGSEPATSGSETPGSEPATSGSETPGSPAGSPTSTEEGTSTEPSEGSAPGTSTEPSEGSAPGSEPATSGSETPGTSESATPESGPGTSTEPSEGSAP
– | ~50 | anti-CD40-AE864, AC385 (scFv, Tested as cleared E. coli lysate, not purified; also called aCD40-XTEN; pBC0010) scFv: MAEIVLTQSPATLSLSPGERATLSCRASQSISDYLHWYQQKPGQAPRLLIYYASHSISGIPARFSGSGSGTDFTLTISSLEPEDFAVYYCQHGHSYPWTFGGGTKVEIKTGSGEGSEGEGGGEGSEGEGSGEGGEGEGSGTQVQLVQSGSELKKPGASVKVSCKASGYAFTTTGMQWVRQAPGQGLEWMGWINTHSGVPKYVEDFKGRFVFSLDTSVSTAYLQISSLKAEDTAVYYCARSGNGNYDLAYFKYWGQGTLVTVSSGGSPAGSPTSTEEGTSESATPESGPGTSTEPSEGSAPGSPAGSPTSTEEGTSTEPSEGSAPGTSTEPSEGSAPGTSESATPESGPGSEPATSGSETPGSEPATSGSETPGSPAGSPTSTEEGTSESATPESGPGTSTEPSEGSAPGTSTEPSEGSAPGSPAGSPTSTEEGTSTEPSEGSAPGTSTEPSEGSAPGTSESATPESGPGTSTEPSEGSAPGTSESATPESGPGSEPATSGSETPGTSTEPSEGSAPGTSTEPSEGSAPGTSESATPESGPGTSESATPESGPGSPAGSPTSTEEGTSESATPESGPGSEPATSGSETPGTSESATPESGPGTSTEPSEGSAPGTSTEPSEGSAPGTSTEPSEGSAPGTSTEPSEGSAPGTSTEPSEGSAPGTSTEPSEGSAPGSPAGSPTSTEEGTSTEPSEGSAPGTSESATPESGPGSEPATSGSETPGTSESATPESGPGSEPATSGSETPGTSESATPESGPGTSTEPSEGSAPGTSESATPESGPGSPAGSPTSTEEGSPAGSPTSTEEGSPAGSPTSTEEGTSESATPESGPGTSTEPSEGSAPGTSESATPESGPGSEPATSGSETPGTSESATPESGPGSEPATSGSETPGTSESATPESGPGTSTEPSEGSAPGSPAGSPTSTEEGTSESATPESGPGSEPATSGSETPGTSESATPESGPGSPAGSPTSTEEGSPAGSPTSTEEGTSTEPSEGSAPGTSESATPESGPGTSESATPESGPGTSESATPESGPGSEPATSGSETPGSEPATSGSETPGSPAGSPTSTEEGTSTEPSEGSAPGTSTEPSEGSAPGSEPATSGSETPGTSESATPESGPGTSTEPSEGSAP
